In publication PMC8888459, “During FeS cluster biogenesis, ferredoxin and frataxin use overlapping binding sites on yeast cysteine desulfurase Nfs1” (The Journal of Biological Chemistry, 2022):

Biological target: T1, NIA–Isu1 complex with S. cerevisiae Isu1 (S. cerevisiae | E. coli (endogenous in …, UniProt P25374 37-497; Q6Q560 1-94; P0A6A8 1-78; Q03020 28-165)
T1 construct: Nfs1, mitochondrial cysteine desulfurase of S. cerevisiae; Isd11 of S. cerevisiae; acyl carrier protein of E. coli (ACPEc), endogenous in the expression host, 8.6 kD; Isu1, FeS cluster scaffold protein of S. cerevisiae (Isu1Sc); Formed in the reaction mixture from NIA and Isu1Sc; the number of Isu1 chains in the complex was not measured here; also called NIA–Isu1Sc; NIA and Isu1Sc mixture; …
T1 sequence (P25374 37-497, chain 1 of 4): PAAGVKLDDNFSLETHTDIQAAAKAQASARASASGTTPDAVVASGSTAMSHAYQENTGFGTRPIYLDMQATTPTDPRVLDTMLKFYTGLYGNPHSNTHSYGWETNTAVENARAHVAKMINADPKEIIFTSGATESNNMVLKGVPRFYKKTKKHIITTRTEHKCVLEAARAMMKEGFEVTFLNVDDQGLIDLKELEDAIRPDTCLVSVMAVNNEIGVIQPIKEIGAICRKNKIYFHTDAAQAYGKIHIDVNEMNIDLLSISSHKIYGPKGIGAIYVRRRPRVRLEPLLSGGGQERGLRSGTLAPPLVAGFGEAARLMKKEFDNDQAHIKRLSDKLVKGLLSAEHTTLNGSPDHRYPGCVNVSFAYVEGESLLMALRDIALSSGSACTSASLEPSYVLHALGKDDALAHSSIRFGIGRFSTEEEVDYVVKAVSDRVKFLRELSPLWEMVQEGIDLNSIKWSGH
T1 sequence (Q6Q560 whole entry, chain 2 of 4): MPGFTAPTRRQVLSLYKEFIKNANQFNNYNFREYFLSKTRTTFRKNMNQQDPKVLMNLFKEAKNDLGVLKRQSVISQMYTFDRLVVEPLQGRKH
T1 sequence (P0A6A8 whole entry, chain 3 of 4): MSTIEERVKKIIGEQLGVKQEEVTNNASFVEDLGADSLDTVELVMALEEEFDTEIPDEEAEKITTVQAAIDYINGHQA
T1 sequence (Q03020 28-165, chain 4 of 4): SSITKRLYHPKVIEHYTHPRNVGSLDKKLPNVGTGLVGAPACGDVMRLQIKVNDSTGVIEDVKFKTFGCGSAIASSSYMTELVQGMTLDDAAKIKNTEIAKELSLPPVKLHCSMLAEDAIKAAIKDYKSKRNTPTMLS
Assay: pull-down; competition: Yah1^GST (2.5 μM) with NIA (5 μM), with or without Isu1Sc or Isu1Ct (7.5 μM), then Yfh1 WT or DE/KK added (12.5 μM or increasing concentrations); glutathione resin; densitometry, amount without Yfh1 set as 100%; buffer PD
Conditions: both partners purified

B1: Yfh1 (frataxin) with a C-terminal polyhistidine tag (natural protein, S. cerevisiae, UniProt Q07540 52-174, looked up)
chain: VESSTDGQVVPQEVLNLPLEKYHEEADDYLDHLLDSLEELSEAHPDCIPDVELSHGVMTLEIPAFGTYVINKQPPNKQIWLASPLSGPNRFDLLNGEWVSLRNGTKLTDILTEEVEKAISKSQ
notes: Yfh1, mitochondrial frataxin of S. cerevisiae; also called Yfh1 (WT); source: E. coli expression systems
  percent reduction of Nfs1, Isd11 and Isu1 pulled down with Yah1^GST at a fivefold excess of Yfh1 (12.5 μM): 85%
